According to article doi:10.1101/2025.02.01.633781:

Biological target: FUS (recombinant, produced in-house) (UniProt P35637 1-526)
Assay: EMSA

Chain of FUS (recombinant, produced in-house) (P35637 whole entry): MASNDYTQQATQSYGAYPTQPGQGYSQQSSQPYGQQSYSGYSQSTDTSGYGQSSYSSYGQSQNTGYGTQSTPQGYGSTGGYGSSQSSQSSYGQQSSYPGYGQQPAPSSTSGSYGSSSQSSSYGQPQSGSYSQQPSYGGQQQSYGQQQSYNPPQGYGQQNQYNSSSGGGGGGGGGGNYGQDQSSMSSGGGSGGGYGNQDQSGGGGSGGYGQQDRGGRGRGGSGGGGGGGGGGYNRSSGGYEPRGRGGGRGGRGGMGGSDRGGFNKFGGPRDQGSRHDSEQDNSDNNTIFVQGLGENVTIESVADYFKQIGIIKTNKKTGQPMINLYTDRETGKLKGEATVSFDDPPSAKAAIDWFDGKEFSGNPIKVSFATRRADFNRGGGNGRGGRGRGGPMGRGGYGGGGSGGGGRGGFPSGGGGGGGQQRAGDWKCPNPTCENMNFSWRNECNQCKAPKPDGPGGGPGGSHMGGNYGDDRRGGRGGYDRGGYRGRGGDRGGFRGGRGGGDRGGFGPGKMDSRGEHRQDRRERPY

B1: 4xDRACH (ssRNA)
RNA: GGACUCGGACUUGGACUCUGGACUUUGGAC
binding result: binds
